What all share (assay): SPR, antibody captured, C2 as analyte;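 note: biacore SPR at 37 °C, anti-C2 mAbs captured via goat anti-human IgG on CM5 chips, double-referenced sensorgrams fit to a 1:1 kinetic or steady-state model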
Experiment [1] concerns the target T1, human C2 I320A (human, UniProt P06681 21-752).
T1 sequence: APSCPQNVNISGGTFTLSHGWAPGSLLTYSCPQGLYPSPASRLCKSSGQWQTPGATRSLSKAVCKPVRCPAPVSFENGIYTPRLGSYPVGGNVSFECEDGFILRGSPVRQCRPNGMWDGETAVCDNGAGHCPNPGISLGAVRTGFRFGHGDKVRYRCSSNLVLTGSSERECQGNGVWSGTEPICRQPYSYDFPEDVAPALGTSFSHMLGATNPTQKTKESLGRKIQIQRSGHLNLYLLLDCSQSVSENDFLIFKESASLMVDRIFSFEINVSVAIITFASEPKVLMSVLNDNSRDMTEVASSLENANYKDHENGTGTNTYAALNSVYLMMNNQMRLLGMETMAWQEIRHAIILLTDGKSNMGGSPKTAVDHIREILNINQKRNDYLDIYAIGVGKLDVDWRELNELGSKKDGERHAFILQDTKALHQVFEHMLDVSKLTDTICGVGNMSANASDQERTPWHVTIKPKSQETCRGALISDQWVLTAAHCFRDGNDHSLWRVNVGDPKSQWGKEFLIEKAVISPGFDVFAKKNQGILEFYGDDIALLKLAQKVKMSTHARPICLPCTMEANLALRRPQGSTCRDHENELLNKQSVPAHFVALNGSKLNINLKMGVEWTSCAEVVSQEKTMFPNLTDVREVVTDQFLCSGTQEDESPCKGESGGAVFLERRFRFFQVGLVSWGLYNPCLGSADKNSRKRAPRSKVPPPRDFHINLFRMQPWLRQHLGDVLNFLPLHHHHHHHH

Experiment [2] concerns the target T2, human C2 L271A (human, UniProt P06681 21-752).
T2 sequence: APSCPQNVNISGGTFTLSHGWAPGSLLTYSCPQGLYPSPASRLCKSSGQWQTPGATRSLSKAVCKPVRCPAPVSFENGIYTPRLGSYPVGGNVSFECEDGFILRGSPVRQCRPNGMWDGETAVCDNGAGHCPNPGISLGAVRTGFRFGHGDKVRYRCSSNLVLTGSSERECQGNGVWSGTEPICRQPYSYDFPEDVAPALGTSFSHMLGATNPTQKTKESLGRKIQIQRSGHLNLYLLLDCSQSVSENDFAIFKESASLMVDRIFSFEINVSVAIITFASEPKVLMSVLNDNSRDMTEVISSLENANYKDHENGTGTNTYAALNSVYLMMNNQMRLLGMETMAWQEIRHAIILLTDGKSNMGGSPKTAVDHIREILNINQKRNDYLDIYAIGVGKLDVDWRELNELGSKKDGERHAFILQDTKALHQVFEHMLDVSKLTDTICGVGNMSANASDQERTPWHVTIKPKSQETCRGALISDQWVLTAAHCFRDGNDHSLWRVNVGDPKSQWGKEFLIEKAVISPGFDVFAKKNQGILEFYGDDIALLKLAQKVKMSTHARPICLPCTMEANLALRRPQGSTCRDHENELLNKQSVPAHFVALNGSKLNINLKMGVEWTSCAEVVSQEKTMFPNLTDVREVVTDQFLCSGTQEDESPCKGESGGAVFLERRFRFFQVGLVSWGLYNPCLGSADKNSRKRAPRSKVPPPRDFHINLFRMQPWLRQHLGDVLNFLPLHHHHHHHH

Experiment [3] deals with T3, human C2 N268A (human, UniProt P06681 21-752).
T3 sequence: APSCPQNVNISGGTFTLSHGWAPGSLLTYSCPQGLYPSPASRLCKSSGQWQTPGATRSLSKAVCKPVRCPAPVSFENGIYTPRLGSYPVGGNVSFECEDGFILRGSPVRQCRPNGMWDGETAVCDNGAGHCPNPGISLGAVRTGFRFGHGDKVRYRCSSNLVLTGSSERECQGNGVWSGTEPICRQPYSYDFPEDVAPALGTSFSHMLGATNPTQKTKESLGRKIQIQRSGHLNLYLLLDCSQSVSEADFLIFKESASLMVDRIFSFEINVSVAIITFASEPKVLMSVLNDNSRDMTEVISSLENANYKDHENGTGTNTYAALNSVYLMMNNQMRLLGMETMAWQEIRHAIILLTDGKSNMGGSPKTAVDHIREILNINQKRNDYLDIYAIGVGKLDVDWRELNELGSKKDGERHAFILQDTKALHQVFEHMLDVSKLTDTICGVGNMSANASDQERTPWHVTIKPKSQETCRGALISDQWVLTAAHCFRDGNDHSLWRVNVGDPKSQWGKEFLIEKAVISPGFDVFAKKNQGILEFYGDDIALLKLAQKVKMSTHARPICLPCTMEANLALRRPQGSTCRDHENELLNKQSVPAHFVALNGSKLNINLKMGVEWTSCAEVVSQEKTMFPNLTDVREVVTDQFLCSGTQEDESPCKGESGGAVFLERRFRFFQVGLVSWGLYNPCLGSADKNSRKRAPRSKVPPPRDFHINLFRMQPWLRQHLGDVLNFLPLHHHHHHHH

Experiment [4] addresses T4, human C2 T483A (human, UniProt P06681 21-752).
T4 sequence: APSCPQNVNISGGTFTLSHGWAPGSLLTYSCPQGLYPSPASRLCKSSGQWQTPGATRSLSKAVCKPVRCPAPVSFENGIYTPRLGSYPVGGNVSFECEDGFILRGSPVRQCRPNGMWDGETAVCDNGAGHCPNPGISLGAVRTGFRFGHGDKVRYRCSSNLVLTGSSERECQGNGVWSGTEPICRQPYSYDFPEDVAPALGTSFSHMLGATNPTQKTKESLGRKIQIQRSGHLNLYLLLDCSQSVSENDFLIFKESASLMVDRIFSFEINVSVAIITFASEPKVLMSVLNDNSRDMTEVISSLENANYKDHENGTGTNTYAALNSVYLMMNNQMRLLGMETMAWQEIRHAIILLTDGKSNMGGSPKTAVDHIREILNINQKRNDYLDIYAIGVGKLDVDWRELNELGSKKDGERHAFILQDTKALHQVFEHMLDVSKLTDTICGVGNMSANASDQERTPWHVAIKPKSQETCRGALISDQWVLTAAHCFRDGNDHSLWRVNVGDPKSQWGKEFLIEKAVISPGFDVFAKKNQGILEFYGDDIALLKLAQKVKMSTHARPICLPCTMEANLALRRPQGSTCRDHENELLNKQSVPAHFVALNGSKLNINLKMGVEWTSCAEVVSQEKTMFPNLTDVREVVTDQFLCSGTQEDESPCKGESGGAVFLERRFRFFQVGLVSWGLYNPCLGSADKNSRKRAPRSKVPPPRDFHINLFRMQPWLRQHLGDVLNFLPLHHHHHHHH

These results are taken from US20220332804A1 (CSL INNOVATION, published 2022).

B1: RF16-226 (antibody, human IgG4 S228P, lambda)
heavy: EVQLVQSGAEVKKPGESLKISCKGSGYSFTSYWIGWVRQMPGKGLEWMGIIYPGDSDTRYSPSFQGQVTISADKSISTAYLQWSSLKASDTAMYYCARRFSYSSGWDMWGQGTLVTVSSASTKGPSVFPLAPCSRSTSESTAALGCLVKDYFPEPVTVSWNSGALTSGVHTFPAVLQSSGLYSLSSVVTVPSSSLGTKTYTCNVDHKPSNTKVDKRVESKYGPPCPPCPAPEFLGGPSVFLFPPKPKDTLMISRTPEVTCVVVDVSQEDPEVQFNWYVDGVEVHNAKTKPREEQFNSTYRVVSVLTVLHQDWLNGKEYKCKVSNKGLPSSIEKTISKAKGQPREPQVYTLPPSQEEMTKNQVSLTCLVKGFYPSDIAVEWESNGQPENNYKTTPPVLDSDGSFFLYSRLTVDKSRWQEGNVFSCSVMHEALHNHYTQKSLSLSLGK
light: SYELTQPPSVSVSPGQTARITCSGDALTSKYVAWYQQKSGLAPLLVIYEDTRRPSGIPAKFSGSSSGSVATLTISGAHGDDEADYYCYSTDASGHQRVFGGGTKLTVLSQPKAAPSVTLFPPSSEELQANKATLVCLISDFYPGAVTVAWKADGSPVKAGVETTKPSKQSNNKYAASSYLSLTPEQWKSHRSYSCQVTHEGSTVEKTVAPTECS
notes: pH-dependent anti-C2 antibody from a phage display library; also called WT
Turning to B1, the Kd in experiment [1] turned out to be 116 nM; in experiment [2], 10.8 nM; in experiment [3], 11.8 nM; in experiment [4], 5.5 nM.
